Experimental data as given in patent US20250346878, “EDITING OF DOUBLE-STRANDED DNA WITH RELAXED PAM REQUIREMENT” (WUHAN UNIVERSITY, published 2025).

What was measured:
dAtCas9 [1] = target: T1, dAtCas9 (Alicyclobacillus tengchongensis, D8A,H617A,N640A); test: EMSA; PAM CTAA; conditions: tags: 6xHis; label: Cy5; NcoI-linearized plasmid
T1 chain: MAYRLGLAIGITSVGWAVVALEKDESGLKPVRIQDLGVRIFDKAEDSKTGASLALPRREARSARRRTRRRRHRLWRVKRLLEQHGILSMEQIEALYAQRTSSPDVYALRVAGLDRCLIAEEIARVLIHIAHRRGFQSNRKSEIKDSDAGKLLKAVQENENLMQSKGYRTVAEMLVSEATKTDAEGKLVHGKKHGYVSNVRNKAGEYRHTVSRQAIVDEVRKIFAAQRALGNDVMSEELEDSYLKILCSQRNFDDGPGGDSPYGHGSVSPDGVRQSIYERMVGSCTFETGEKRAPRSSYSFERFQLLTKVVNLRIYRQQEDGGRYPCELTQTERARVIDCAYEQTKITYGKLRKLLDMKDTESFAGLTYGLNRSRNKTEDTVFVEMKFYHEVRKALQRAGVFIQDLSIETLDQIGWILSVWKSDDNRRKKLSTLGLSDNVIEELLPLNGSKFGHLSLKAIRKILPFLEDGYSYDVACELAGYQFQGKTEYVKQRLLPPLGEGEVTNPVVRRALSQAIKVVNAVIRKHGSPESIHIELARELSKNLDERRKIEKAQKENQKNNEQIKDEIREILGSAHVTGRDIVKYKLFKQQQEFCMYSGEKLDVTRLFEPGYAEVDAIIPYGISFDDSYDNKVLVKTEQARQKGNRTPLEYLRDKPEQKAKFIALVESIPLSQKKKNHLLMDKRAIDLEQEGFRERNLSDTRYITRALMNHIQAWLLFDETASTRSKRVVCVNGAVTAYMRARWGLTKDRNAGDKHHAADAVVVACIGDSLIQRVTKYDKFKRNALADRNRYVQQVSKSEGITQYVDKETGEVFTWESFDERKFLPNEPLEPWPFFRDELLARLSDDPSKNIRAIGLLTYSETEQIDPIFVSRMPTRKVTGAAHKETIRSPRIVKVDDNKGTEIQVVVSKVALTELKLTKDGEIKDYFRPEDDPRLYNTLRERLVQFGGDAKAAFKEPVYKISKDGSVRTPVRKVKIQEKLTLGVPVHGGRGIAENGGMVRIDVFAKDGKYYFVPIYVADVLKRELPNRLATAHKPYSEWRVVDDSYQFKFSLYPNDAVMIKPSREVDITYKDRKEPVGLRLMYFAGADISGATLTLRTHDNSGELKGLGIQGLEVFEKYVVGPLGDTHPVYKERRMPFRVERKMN
Experimental: (§1) A. Schematic diagram of AtCas9 domain structure showing RuvC and HNH nuclease domain mutation site. BH, arginine-rich bridge helix; REC, recognition lobe; L1, linker 1; L2, linker 2; WED, Wedge domain; TOPO, Topoisomerase-homology domain; CTD, C-terminal domain; HNH, HNH domain; D, Aspartic acid; H, Histidine; N, Asparagine; A, Alanine. B. (left) Electrophoretic mobility shift assay (EMSA) were carried out by incubating AtCas9 RNP with 25 nM Cy5-labeled oligonucleotides (50 bp) in buffer16 without Mg²⁺. […] (right) Catalytically dead AtCas9 (dAtCas9, D8A H617A N640A) were used for EMSA assay in the presence of Mg²⁺ C. […] The bulge substrate details are illustrated in FIG. 10B. […] MUT PAM TATA and WT PAM CTAA was used. D. Higher binding affinity of AtCas9 RNPs towards negative supercoiled dsDNA than linear dsDNA. 1 nM cy5-labeled negative supercoil plasmid or NcoI-linearized plasmid containing PAM (CTAA) or mutant PAM (TGAC) motif were incubated with dAtCas9 RNP complex at indicated dosage. ProK, Proteinase K.
(§2) dAtCas9 and sgRNA were mixed at 1:2 molar ratio in 1×buffer16. After incubation at room temperature for 10 minutes, the RNP mixture were diluted to various concentration ranging from […] to 0.6 nM and 4 nM cy5-labeled oligonucleotides was added. Binding reactions were carried out at 55° C. for 30 minutes. Samples were resolved on 4% native TBE-PAGE for oligonucleotides. […]

dAtCas9 [2] = target: T1, dAtCas9; test: EMSA; SD 10.9; buffer16 with 10 mM Mg2+, 55C; PAM CTAA; conditions: tags: 6xHis; label: 5' Cy5
Experimental: as §1, §2

dAtCas9-D1089A [3] = target: T2, dAtCas9-D1089A (Alicyclobacillus tengchongensis, D8A,H617A,N640A,D1089A); test: EMSA; SD 15.39; PAM CTAA; conditions: tags: 6xHis; label: 5' Cy5
T2 chain: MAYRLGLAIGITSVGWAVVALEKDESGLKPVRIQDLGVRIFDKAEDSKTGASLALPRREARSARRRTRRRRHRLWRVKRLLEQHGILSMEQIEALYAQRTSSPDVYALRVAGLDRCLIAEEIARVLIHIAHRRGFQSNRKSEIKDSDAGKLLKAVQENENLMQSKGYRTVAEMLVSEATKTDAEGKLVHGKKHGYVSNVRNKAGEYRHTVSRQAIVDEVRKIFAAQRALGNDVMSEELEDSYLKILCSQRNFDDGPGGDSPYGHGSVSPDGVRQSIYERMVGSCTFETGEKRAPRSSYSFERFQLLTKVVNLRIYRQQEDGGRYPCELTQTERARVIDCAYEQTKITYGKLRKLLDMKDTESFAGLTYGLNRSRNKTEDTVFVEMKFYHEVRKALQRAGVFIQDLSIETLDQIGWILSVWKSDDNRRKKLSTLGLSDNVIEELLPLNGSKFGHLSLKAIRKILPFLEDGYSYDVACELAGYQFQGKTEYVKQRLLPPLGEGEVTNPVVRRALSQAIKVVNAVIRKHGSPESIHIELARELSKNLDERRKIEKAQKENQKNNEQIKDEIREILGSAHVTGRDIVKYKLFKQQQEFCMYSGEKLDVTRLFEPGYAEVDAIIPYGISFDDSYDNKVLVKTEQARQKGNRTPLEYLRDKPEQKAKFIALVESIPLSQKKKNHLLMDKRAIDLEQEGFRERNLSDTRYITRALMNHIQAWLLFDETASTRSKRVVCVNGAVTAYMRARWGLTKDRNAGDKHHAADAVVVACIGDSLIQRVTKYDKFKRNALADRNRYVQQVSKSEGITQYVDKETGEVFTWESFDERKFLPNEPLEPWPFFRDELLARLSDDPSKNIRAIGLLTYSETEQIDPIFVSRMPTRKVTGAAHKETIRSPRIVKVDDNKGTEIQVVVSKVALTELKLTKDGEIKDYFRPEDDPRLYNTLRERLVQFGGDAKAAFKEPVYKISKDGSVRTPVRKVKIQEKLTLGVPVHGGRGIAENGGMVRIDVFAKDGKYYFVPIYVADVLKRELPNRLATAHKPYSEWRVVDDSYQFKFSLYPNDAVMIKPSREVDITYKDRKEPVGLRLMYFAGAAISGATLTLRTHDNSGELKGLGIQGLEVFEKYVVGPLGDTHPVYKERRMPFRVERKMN
Excerpt: (§3) A. Schematic representation of AtCas9 domain structure showing the positions of PAM-interacting (PI) mutations. BH, arginine-rich bridge helix; REC, recognition lobe; L1, L1 linker; L2, L2 linker; WED, Wedge domain; TOPO, Topoisomerase-homology domain; CTD, C-terminal domain; HNH, HNH domain; RuvC, RuvC domain; D, Aspartic acid; I, Isoleucine; S, Serine; G, Glycine; A, Alanine. B. Negative supercoil and linearized DNA of different PAM were cleaved by WT AtCas9 and two PI mutants, m4 and m5. Each PAM variant has at least two distinct spacer sequences for cleavage assays. Use Image Lab software to analyzed the percentage of cutting products and take the average value of each PAM variant for graphing. m4, D1089A; m5, D1089A S1091A G1092A. C. Sequence logo for the AtCas9 PI domain mutant m4 (D1089A) PAM as determined by linearized PAM library substrates cleavage assay. D. EMSA assay were performed with 5′ cy5-labeled oligonucleotides carrying WT PAM (CTAA, left) or MUT PAM (TATA, right), and dAtCas9 or dAtCas9-D1089A RNP complex titrating from 1.2 nM to 2.4 μM. […] E. SpCas9 RNPs hardly bind to mut PAM (GTC) dsDNA compared with wt PAM (AGG) dsDNA. KD±SD for SpCas9 to WT PAM dsDNA, 300±10.57 nM; KD±SD for SpCas9 to MUT PAM dsDNA, ˜2.495e+18 nM.
(§4) dAtCas9 and sgRNA were mixed at 1:2 molar ratio in 1×buffer16. […]

dAtCas9 [4] = target: T1, dAtCas9; test: EMSA; SD 12.05; second measurement, PAM CTAA; guide 21a sgRNA-At; conditions: tags: 6xHis; label: 5' Cy5
Excerpt: as §3, §4

dAtCas9 [5] = target: T1, dAtCas9; test: EMSA; SD 7.1; second measurement, mutated PAM TATA; conditions: tags: 6xHis; label: 5' Cy5
Excerpt: as §3, §4

dAtCas9 [6] = target: T1, dAtCas9; test: EMSA; SD 4.5; mutated PAM TATA; buffer16, 55C; conditions: tags: 6xHis; label: 5' Cy5
Experimental: as §1, §2

dAtCas9-D1089A [7] = target: T2, dAtCas9-D1089A; test: EMSA; SD 13.6; PAM TATA; conditions: tags: 6xHis; label: 5' Cy5
Excerpt: as §3, §4

dAtCas9 [8] = target: T1, dAtCas9; test: EMSA; SD 12.2; mutated PAM TATA with 1-2 bulge; conditions: tags: 6xHis; label: 5' Cy5; 2-base bulge at PAM-proximal positions 1-2
Experimental: as §1, §2

B1: 27m sgRNA-At ; 27m WT PAM (CTAA) mini plasmid, linear (ssRNA ; dsDNA)
RNA: GAAGAUCCUUUGAUCUUUUCUACGGGUCAUAGUUCCCUCACAAGCCUCGAUGUGGUAUGAUGAAAAUCAUACCACAUCAAGGCUUGCGAGGUUGCUAUGAUAAGGCAACAGGCCGCAAAGCACUGACCCGCAUUCCAAUGAAUGCGGGUCAUCUACUUUUU
DNA 1: GAAGATCCTTTGATCTTTTCTACGGGGTCCTAA
DNA 2: TTAGGACCCCGTAGAAAAGATCAAAGGATCTTC
binding result (dAtCas9 [1]): binds

B2: 21a sgRNA-At full length ; 50 bp 21a WT PAM (CTAA) (ssRNA ; dsDNA)
RNA: AAAUGCCUUCGAUUUUACCCCAACGAAUAAGUCAUAGUUCCCUCACAAGCCUCGAUGUGGUAUGAUGAAAAUCAUACCACAUCAAGGCUUGCGAGGUUGCUAUGAUAAGGCAACAGGCCGCAAAGCACUGACCCGCAUUCCAAUGAAUGCGGGUCAUCUACUUUUU
DNA 1: AAATGCCTTCGATTTTACCCCAACGAATAACAGGCTAAAATATGGACCTG
DNA 2: CAGGTCCATATTTTAGCCTGTTATTCGTTGGGGTAAAATCGAAGGCATTT
Kd (dAtCas9 [2]): 22.4 nM | Kd (dAtCas9-D1089A [3]): 44.4 nM | Kd (dAtCas9 [4]): 26.2 nM

B3: 21a sgRNA-At full length ; 50 bp 21a mutated PAM (TATA), 0 bulge (ssRNA ; dsDNA)
RNA: AAAUGCCUUCGAUUUUACCCCAACGAAUAAGUCAUAGUUCCCUCACAAGCCUCGAUGUGGUAUGAUGAAAAUCAUACCACAUCAAGGCUUGCGAGGUUGCUAUGAUAAGGCAACAGGCCGCAAAGCACUGACCCGCAUUCCAAUGAAUGCGGGUCAUCUACUUUUU
DNA 1: AAATGCCTTCGATTTTACCCCAACGAATAAGTCATATAAATATGGACCTG
DNA 2: CAGGTCCATATTTATATGACTTATTCGTTGGGGTAAAATCGAAGGCATTT
Kd (dAtCas9 [5]): 109 nM | Kd (dAtCas9 [6]): 248 nM | Kd (dAtCas9-D1089A [7]): 27.1 nM

B4: 21a sgRNA-At full length ; 50 bp 21a mutated PAM, 1-2 bulge (ssRNA ; dsDNA)
RNA: AAAUGCCUUCGAUUUUACCCCAACGAAUAAGUCAUAGUUCCCUCACAAGCCUCGAUGUGGUAUGAUGAAAAUCAUACCACAUCAAGGCUUGCGAGGUUGCUAUGAUAAGGCAACAGGCCGCAAAGCACUGACCCGCAUUCCAAUGAAUGCGGGUCAUCUACUUUUU
DNA 1: AAATGCCTTCGATTTTACCCCAACGAATTTGTCATATAAATATGGACCTG
DNA 2: CAGGTCCATATTTATATGACTTATTCGTTGGGGTAAAATCGAAGGCATTT
Kd (dAtCas9 [8]): 29.5 nM
